T1: FcgRIIa H extracellular domain with C-terminal His tag (human, UniProt P12318 34-217)
T1 construct: extracellular domain; also called FcγRIIa H; FcγRIIa type H; not shown: His tag attached to the C terminus
T1 sequence (looked up): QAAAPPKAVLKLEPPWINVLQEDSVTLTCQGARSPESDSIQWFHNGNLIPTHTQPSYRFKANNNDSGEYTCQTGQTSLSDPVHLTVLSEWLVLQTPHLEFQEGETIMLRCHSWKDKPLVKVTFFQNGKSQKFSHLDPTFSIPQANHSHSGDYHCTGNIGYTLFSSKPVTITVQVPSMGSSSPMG

T2: FcgRIIa R extracellular domain with C-terminal His tag (human, UniProt P12318 34-217)
T2 construct: extracellular domain; also called FcγRIIa R; FcγRIIa type R; not shown: His tag attached to the C terminus
T2 sequence (looked up): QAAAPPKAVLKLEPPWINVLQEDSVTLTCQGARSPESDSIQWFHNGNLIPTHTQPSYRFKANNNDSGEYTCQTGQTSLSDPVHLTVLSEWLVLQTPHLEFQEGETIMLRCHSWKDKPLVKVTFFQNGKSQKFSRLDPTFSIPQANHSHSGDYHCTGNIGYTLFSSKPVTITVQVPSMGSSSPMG


Legend:
[1] = target: T1, FcgRIIa H extracellular domain with …; test: ratio of SPR (Biacore) KDs, FcγRIIb as reference; antibody captured on chip, FcγR as analyte
Experimental: (§1) These antibodies were assessed for the binding activity to each FcγR according to the method described in Reference Example 2.
(§2) Analysis of interaction between objective antibody and the FcγR was carried out using Biacore T100 (GE Healthcare). HBS-EP+ (GE Healthcare) was used as the running buffer, and the measurement temperature was set to 25° C. Chips produced by immobilizing the antigen peptide by the amine coupling method to a Series S Sencor Chip CM5 (GE Healthcare), or alternatively, chips produced by allowing preliminarily biotinylated antigen peptides to interact with and immobilize onto a Series S Sensor Chip SA (certified) (GE Healthcare) were used. Antibodies of interest were captured onto an antigen peptide-immobilized chip, and allowed to interact to each FcγR diluted with running buffer. To regenerate and repeatedly use the chip, the antibodies captured on the chip were washed off by reacting 10 mM glycine-HCl, pH 1.5.
(§3) The FcγR-binding activity of each antibody was assessed primarily using as an indicator the FcγR-binding activity and dissociation constant for FcγR.

[2] = target: T2, FcgRIIa R extracellular domain with …; test: as above
Experimental: as §1, §2, §3

Row | Binder | A/I ratio (KD for FcγRIIb / KD for FcγRIIa H) [1] | A/I ratio (KD for FcγRIIb / KD for FcγRIIa R) [2]
1 | GpH7-Kn033/GpH7-Hl033/GpL16-k0 (antibody, human IgG1, kappa, Anti-glypican-3 IgG1 with knobs-into-holes only (knob Y349C/T366W; hole D356C/T366S/L368A/Y407V); also called Kn033/Hl033) heavy 1: not shown heavy 2: not shown light: DIVMTQSPLSLPVTPGEPASISCQASESLVHSNRNTYLHWYLQKPGQSPQLLIYKVSNRFSGVPDRFSGSGSGTDFTLKISRVEAEDVGVYYCSQNTHVPPTFGQGTKVEIERTVAAPSVFIFPPSDEQLKSGTASVVCLLNNFYPREAKVQWKVDNALQSGNSQESVTEQDSKDSTYSLSSTLTLSKADYEKHKVYACEVTHQGLSSPVTKSFNRGEC | 6.2 | 4.9
2 | GpH7-Kn045/GpH7-Hl048/GpL16-k0 (antibody, human IgG1, kappa, Knob chain L234Y/L235Y/G236A/H268D/S298A; hole chain G236A/S239D/A330K/I332E; also called Kn045/Hl048) heavy 1: QVQLVQSGAEVKKPGASVTVSCKASGYTFTDYEMHWIRQPPGEGLEWIGAIDPKTGDTAYSESFQDRVTLTADKSTSTAYMELSSLTSEDTAVYYCTRFYSYTYWGQGTLVTVSSASTKGPSVFPLAPSSKSTSGGTAALGCLVKDYFPEPVTVSWNSGALTSGVHTFPAVLQSSGLYSLSSVVTVPSSSLGTQTYICNVNHKPSNTKVDKKVEPKSCDKTHTCPPCPAPEYYAGPSVFLFPPKPKDTLMISRTPEVTCVVVDVSDEDPEVKFNWYVDGVEVHNAKTKPREEQYNATYRVVSVLTVLHQDWLNGKEYKCKVSNKALPAPIEKTISKAKGQPREPQVCTLPPSRDELTKNQVSLWCLVKGFYPSDIAVEWESNGQPENNYKTTPPVLDSDGSFFLYSKLTVDKSRWQQGNVFSCSVMHEALHNHYTQKSLSLSP heavy 2: QVQLVQSGAEVKKPGASVTVSCKASGYTFTDYEMHWIRQPPGEGLEWIGAIDPKTGDTAYSESFQDRVTLTADKSTSTAYMELSSLTSEDTAVYYCTRFYSYTYWGQGTLVTVSSASTKGPSVFPLAPSSKSTSGGTAALGCLVKDYFPEPVTVSWNSGALTSGVHTFPAVLQSSGLYSLSSVVTVPSSSLGTQTYICNVNHKPSNTKVDKKVEPKSCDKTHTCPPCPAPELLAGPDVFLFPPKPKDTLMISRTPEVTCVVVDVSHEDPEVKFNWYVDGVEVHNAKTKPREEQYNSTYRVVSVLTVLHQDWLNGKEYKCKVSNKALPKPEEKTISKAKGQPREPQVYTLPPSRCELTKNQVSLSCAVKGFYPSDIAVEWESNGQPENNYKTTPPVLDSDGSFFLVSKLTVDKSRWQQGNVFSCSVMHEALHNHYTQKSLSLSP light: DIVMTQSPLSLPVTPGEPASISCQASESLVHSNRNTYLHWYLQKPGQSPQLLIYKVSNRFSGVPDRFSGSGSGTDFTLKISRVEAEDVGVYYCSQNTHVPPTFGQGTKVEIERTVAAPSVFIFPPSDEQLKSGTASVVCLLNNFYPREAKVQWKVDNALQSGNSQESVTEQDSKDSTYSLSSTLTLSKADYEKHKVYACEVTHQGLSSPVTKSFNRGEC | 9.5 | 22

Second part, the binder after the results:

Row | A/I ratio (KD for FcγRIIb / KD for FcγRIIa H) [1] | A/I ratio (KD for FcγRIIb / KD for FcγRIIa R) [2] | Binder
3 | 8.6 | 13 | GpH7-Kn037/GpH7-Hl036/GpL16-k0 (antibody, human IgG1, kappa, G236A/S239D/I332E in both H chains (called homodimerized); also called Kn037/Hl036) heavy 1: QVQLVQSGAEVKKPGASVTVSCKASGYTFTDYEMHWIRQPPGEGLEWIGAIDPKTGDTAYSESFQDRVTLTADKSTSTAYMELSSLTSEDTAVYYCTRFYSYTYWGQGTLVTVSSASTKGPSVFPLAPSSKSTSGGTAALGCLVKDYFPEPVTVSWNSGALTSGVHTFPAVLQSSGLYSLSSVVTVPSSSLGTQTYICNVNHKPSNTKVDKKVEPKSCDKTHTCPPCPAPELLAGPDVFLFPPKPKDTLMISRTPEVTCVVVDVSHEDPEVKFNWYVDGVEVHNAKTKPREEQYNSTYRVVSVLTVLHQDWLNGKEYKCKVSNKALPAPEEKTISKAKGQPREPQVCTLPPSRDELTKNQVSLWCLVKGFYPSDIAVEWESNGQPENNYKTTPPVLDSDGSFFLYSKLTVDKSRWQQGNVFSCSVMHEALHNHYTQKSLSLSP heavy 2: QVQLVQSGAEVKKPGASVTVSCKASGYTFTDYEMHWIRQPPGEGLEWIGAIDPKTGDTAYSESFQDRVTLTADKSTSTAYMELSSLTSEDTAVYYCTRFYSYTYWGQGTLVTVSSASTKGPSVFPLAPSSKSTSGGTAALGCLVKDYFPEPVTVSWNSGALTSGVHTFPAVLQSSGLYSLSSVVTVPSSSLGTQTYICNVNHKPSNTKVDKKVEPKSCDKTHTCPPCPAPELLAGPDVFLFPPKPKDTLMISRTPEVTCVVVDVSHEDPEVKFNWYVDGVEVHNAKTKPREEQYNSTYRVVSVLTVLHQDWLNGKEYKCKVSNKALPAPEEKTISKAKGQPREPQVYTLPPSRCELTKNQVSLSCAVKGFYPSDIAVEWESNGQPENNYKTTPPVLDSDGSFFLVSKLTVDKSRWQQGNVFSCSVMHEALHNHYTQKSLSLSP light: DIVMTQSPLSLPVTPGEPASISCQASESLVHSNRNTYLHWYLQKPGQSPQLLIYKVSNRFSGVPDRFSGSGSGTDFTLKISRVEAEDVGVYYCSQNTHVPPTFGQGTKVEIERTVAAPSVFIFPPSDEQLKSGTASVVCLLNNFYPREAKVQWKVDNALQSGNSQESVTEQDSKDSTYSLSSTLTLSKADYEKHKVYACEVTHQGLSSPVTKSFNRGEC
4 | 0.93 | 1.8 | GpH7-Kn032/GpH7-Hl032/GpL16-k0 (antibody, human IgG1, kappa, S239D/A330L/I332E in both H chains (called homodimerized); also called Kn032/Hl032) heavy 1: QVQLVQSGAEVKKPGASVTVSCKASGYTFTDYEMHWIRQPPGEGLEWIGAIDPKTGDTAYSESFQDRVTLTADKSTSTAYMELSSLTSEDTAVYYCTRFYSYTYWGQGTLVTVSSASTKGPSVFPLAPSSKSTSGGTAALGCLVKDYFPEPVTVSWNSGALTSGVHTFPAVLQSSGLYSLSSVVTVPSSSLGTQTYICNVNHKPSNTKVDKKVEPKSCDKTHTCPPCPAPELLGGPDVFLFPPKPKDTLMISRTPEVTCVVVDVSHEDPEVKFNWYVDGVEVHNAKTKPREEQYNSTYRVVSVLTVLHQDWLNGKEYKCKVSNKALPLPEEKTISKAKGQPREPQVCTLPPSRDELTKNQVSLWCLVKGFYPSDIAVEWESNGQPENNYKTTPPVLDSDGSFFLYSKLTVDKSRWQQGNVFSCSVMHEALHNHYTQKSLSLSP heavy 2: QVQLVQSGAEVKKPGASVTVSCKASGYTFTDYEMHWIRQPPGEGLEWIGAIDPKTGDTAYSESFQDRVTLTADKSTSTAYMELSSLTSEDTAVYYCTRFYSYTYWGQGTLVTVSSASTKGPSVFPLAPSSKSTSGGTAALGCLVKDYFPEPVTVSWNSGALTSGVHTFPAVLQSSGLYSLSSVVTVPSSSLGTQTYICNVNHKPSNTKVDKKVEPKSCDKTHTCPPCPAPELLGGPDVFLFPPKPKDTLMISRTPEVTCVVVDVSHEDPEVKFNWYVDGVEVHNAKTKPREEQYNSTYRVVSVLTVLHQDWLNGKEYKCKVSNKALPLPEEKTISKAKGQPREPQVYTLPPSRCELTKNQVSLSCAVKGFYPSDIAVEWESNGQPENNYKTTPPVLDSDGSFFLVSKLTVDKSRWQQGNVFSCSVMHEALHNHYTQKSLSLSP light: DIVMTQSPLSLPVTPGEPASISCQASESLVHSNRNTYLHWYLQKPGQSPQLLIYKVSNRFSGVPDRFSGSGSGTDFTLKISRVEAEDVGVYYCSQNTHVPPTFGQGTKVEIERTVAAPSVFIFPPSDEQLKSGTASVVCLLNNFYPREAKVQWKVDNALQSGNSQESVTEQDSKDSTYSLSSTLTLSKADYEKHKVYACEVTHQGLSSPVTKSFNRGEC

From US20180155451A1 (published 2018)
